Source: patent US20110046068A1 (MEDICAL RESEARCH COUNCIL, published 2011)
One block for each binder: values may come before it. Non-standard residues stand in square brackets, D forms with d. No end group written: not given here.

Columns and labels:
[1] = target: T1, human gpr-54 receptor (human, UniProt Q969F8 1-398); assay: whole-cell competition binding against 125I-kisspeptin, CHO cells stably transfected with GPR54 (CPM); the fall of the curve lies between Total and -10 LogM [200]
T1 construct: whole, on cells; CHO cells stably expressing the human gpr-54 receptor came from Prof; G. Vassart; also called kisspeptin receptor; AXOR12
Protocol: (§1) Cell monolayers were placed on ice and exposed to 0.5 mls peptide (10 pM-1 uM); the cells were then incubated at 4° C. for 4 hr. After 4 hrs, cells were washed twice with ice cold Dulbecco's phosphate buffered saline (DPBS; with Calcium and Magnesium) and then 0.5 mls 0.1M Sodium Hydroxide (NaOH) were added to cells for 20 minutes, shaking to lyse cells. Lysates were transferred to plastic tubes and bound radioactivity counted on the gamma counter for 60 seconds.

[2] = target: T1, human gpr-54 receptor; assay: cell-based or functional assay
[3] = target: T1, human gpr-54 receptor; assay: cell-based or functional assay; remark: listed apart in the source
[4] = target: T1, human gpr-54 receptor; assay: whole-cell competition binding against 125I-kisspeptin, CHO cells stably transfected with hGPR54 (CPM) [187]
Protocol: as §1

[5] = target: T1, human gpr-54 receptor; assay: cell-based or functional assay; remark: listed apart in the source
[6] = target: T1, human gpr-54 receptor; assay: whole-cell competition binding against 125I-kisspeptin, CHO cells stably transfected with GPR54 (CPM) [234]
Protocol: as §1

[7] = target: T1, human gpr-54 receptor; assay: competition of I125-labelled kisspeptin-10 on gpr-54 cells (CPM x 10^3); the legend calls the number an affinity
[8] = target: T1, human gpr-54 receptor; assay: cell-based or functional assay; remark: listed apart in the source
[9] = target: T1, human gpr-54 receptor; assay: cell-based or functional assay; remark: listed apart in the source
[10] = target: T1, human gpr-54 receptor; assay: cell-based or functional assay; remark: listed apart in the source
[11] = target: T1, human gpr-54 receptor; assay: whole-cell competition binding against 125I-kisspeptin, CHO cells stably transfected with hGPR54 (CPM) [188]
Protocol: as §1

T1 sequence (Q969F8 whole entry): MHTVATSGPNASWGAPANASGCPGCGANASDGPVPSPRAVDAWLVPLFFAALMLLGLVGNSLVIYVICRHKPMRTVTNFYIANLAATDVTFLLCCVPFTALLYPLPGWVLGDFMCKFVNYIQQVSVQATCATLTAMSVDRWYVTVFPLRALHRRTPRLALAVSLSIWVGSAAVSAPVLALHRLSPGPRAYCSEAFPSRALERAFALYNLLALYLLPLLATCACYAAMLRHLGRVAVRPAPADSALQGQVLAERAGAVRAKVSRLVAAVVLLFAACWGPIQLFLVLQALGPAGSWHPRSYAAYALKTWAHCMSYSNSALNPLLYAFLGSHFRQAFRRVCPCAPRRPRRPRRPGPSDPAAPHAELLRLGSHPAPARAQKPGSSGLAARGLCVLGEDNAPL

IC50 [1]: 0.00249 nM | Inhibition of IP stimulation by 10nM Agonist: % Inhibition of Max [2]: 63% | Inhibition of IP stimulation by 10nM Agonist: IC50 [2]: 300 nM | IP competition with 10nM kisspeptin-10: IC50 [200] [3]: 300 nM
B1: 200 (peptide)
peptide: Ac-FGL[dR]W-NH2
modifications: not fully specified
notes: kisspeptin-10 analogue; also called acFGL[(D)-R]W

IC50 [4]: 211 nM | IP stimulation (IC50), peptide alone [2]: 40 nM | Inhibition of IP stimulation by 10nM Agonist: % Inhibition of Max [2]: 36% | IP dose response, peptide alone: EC50 (unlabelled number beside rising curve) [187] [5]: 72.1 nM
B2: 187 (peptide)
peptide: YNWNSFGLRW-NH2
notes: kisspeptin-10 analogue

IC50 [6]: 2.79 nM | IC50 [7]: 2.8 nM | Inhibition of IP stimulation by 10nM Agonist: IC50 [2]: 70 nM | IP competition with 10nM kisspeptin-10: IC50 [234] [8]: 70 nM | IC50 of inhibition of 10 nM kisspeptin-10 stimulation of IP [9]: 7 nM | IC50 of inhibition of kisspeptin stimulation of IP [9]: < 10 nM
B3: Peptide 234 (peptide)
peptide: [dA]NWNGFG[dW]RF-NH2

IP competition with 10nM kisspeptin-10: IC50 [188] [10]: < 0.1 nM | IP dose response, peptide alone: EC50 (unlabelled number beside rising curve) [188] [10]: 92.3 nM | IP stimulation (IC50), peptide alone [2]: 125 nM | Inhibition of IP stimulation by 10nM Agonist: % Inhibition of Max [2]: 74% | IC50 [11]: 143 nM
B4: 188 (peptide)
peptide: Ac-FGLRF-NH2
notes: kisspeptin-10 analogue; also called Peptide 188; acFGLRF
